Patent US9327008B2, “Cell-permeant peptide-based inhibitor of kinases” (Purdue Research Foundation, priority 2008, dated 2016)

How the values were obtained:
Assay type in all cases: biochemical
[1] = molecular target: T1, Aurora-A (Homo sapiens, UniProt O14965); experiment: Millipore radiometric kinase activity assay, Aurora-A (h)
T1 construct: purchased Millipore (assay service)
T1 sequence (O14965 1-403): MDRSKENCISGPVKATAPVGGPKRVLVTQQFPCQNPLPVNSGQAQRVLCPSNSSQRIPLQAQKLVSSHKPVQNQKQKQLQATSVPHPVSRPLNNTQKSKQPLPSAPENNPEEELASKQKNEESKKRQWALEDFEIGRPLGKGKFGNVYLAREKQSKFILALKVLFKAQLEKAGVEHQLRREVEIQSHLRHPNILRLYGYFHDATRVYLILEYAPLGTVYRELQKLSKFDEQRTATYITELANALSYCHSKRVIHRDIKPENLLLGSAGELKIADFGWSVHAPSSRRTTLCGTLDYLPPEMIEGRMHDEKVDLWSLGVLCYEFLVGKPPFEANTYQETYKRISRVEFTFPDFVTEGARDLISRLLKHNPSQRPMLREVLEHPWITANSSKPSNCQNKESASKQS
Procedure: (§1) A commercial radiometric assay service (Millipore, Billerica, Mass.) was used to test the specificity and potency of peptides containing a coupled transduction domain and therapeutic domain, hereinafter “complete peptides”). In these assays, if the kinase is not inhibited by an inhibitor peptide, a positively charged substrate is phosphorylated with a radiolabeled phosphate group from an ATP.
(§2) In a final reaction volume of 25 μL, Aurora-A (h) (5-10 mU) is incubated with 8 mM MOPS pH 7.0, 0.2 mM EDTA, 200 μM LRRASLG [SEQ ID NO: 50] (Kemptide), 10 mM MgAcetate and [γ-^33P-ATP] (specific activity approx. 500 cpm/pmol, concentration as required). The reaction is initiated by the addition of the MgATP mix. After incubation for 40 minutes at room temperature, the reaction is stopped by the addition of 5 μL of a 3% phosphoric acid solution. 10 μL of the reaction is then spotted onto a P30 filtermat and washed three times for 5 minutes in 50 mM phosphoric acid and once in methanol prior to drying and scintillation counting.
(§3) IC50 values for inhibitor peptides were determined using Millipore's IC50Profiler Express service. The IC50 value was estimated from a 10-point curve of one-half log dilutions. For peptides tested for specificity, the concentration of the peptides that inhibited approximately 95% of MK2 activity was chosen to profile against a battery of kinases related to MK2, cell viability, or human disease from MilliporeKinaseProfiler service. In both assays, compounds were supplied in dimethylsulfoxide (DMSO). Every kinase activity measurement was conducted in duplicate.
(§4) Therapeutic inhibitor peptides were assayed for activity against human kinases related to MK2, cell viability, or human disease. The assays were performed using concentrations of therapeutic inhibitor peptides that yielded 2% to 8% of normal MK2 activity. Error is reported as the standard deviation between 2 samples, and “c” is rat AMPK whereas all other kinases used are human kinases.

[2] = molecular target: T2, JAK3 (Homo sapiens, UniProt P52333); experiment: Millipore radiometric kinase activity assay, JAK3 (h)
T2 construct: purchased Millipore (assay service)
T2 sequence (P52333 1-1124): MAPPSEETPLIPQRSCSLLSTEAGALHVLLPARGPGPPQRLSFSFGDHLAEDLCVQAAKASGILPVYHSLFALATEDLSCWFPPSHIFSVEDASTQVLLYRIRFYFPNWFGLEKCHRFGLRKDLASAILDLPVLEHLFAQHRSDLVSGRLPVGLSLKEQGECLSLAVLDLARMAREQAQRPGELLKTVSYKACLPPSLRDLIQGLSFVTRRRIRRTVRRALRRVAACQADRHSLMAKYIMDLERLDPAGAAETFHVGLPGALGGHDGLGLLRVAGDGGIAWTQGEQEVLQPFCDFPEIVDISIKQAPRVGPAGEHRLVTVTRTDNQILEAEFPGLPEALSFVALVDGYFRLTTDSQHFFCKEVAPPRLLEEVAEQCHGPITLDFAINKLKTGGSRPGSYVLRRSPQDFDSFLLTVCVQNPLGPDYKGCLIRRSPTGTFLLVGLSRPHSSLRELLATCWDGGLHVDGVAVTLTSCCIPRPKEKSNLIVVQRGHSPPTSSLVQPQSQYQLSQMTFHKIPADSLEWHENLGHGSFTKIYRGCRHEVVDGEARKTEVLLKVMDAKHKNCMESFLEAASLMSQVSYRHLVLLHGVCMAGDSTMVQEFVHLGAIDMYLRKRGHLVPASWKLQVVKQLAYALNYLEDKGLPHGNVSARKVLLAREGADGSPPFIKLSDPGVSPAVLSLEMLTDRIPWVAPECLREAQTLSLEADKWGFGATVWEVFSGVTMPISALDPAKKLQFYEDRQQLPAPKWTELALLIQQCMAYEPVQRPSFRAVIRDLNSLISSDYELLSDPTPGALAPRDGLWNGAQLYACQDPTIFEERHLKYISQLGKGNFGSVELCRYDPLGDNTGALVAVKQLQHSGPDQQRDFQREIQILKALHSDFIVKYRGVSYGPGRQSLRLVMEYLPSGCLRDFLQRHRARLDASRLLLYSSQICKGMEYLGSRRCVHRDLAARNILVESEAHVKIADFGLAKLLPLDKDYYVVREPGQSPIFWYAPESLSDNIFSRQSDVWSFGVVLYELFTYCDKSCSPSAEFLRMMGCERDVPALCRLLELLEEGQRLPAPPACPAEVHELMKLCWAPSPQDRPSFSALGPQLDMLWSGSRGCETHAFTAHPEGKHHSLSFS
Procedure: as §1
as §2, with “μL, JAK3” for “μL, Aurora-A”, “EDTA, 500” for “EDTA, 200”, “μM […]” for “μM LRRASLG”, “NO: 58],” for “NO: 50] (Kemptide),”, “in 75” for “in 50”
as §3, §4

[3] = molecular target: T3, Ret (Homo sapiens, UniProt P07949); experiment: Millipore radiometric kinase activity assay, Ret (h); settings: peptide 100 μM
T3 construct: purchased Millipore (radiometric assay service)
T3 sequence (P07949 29-1114): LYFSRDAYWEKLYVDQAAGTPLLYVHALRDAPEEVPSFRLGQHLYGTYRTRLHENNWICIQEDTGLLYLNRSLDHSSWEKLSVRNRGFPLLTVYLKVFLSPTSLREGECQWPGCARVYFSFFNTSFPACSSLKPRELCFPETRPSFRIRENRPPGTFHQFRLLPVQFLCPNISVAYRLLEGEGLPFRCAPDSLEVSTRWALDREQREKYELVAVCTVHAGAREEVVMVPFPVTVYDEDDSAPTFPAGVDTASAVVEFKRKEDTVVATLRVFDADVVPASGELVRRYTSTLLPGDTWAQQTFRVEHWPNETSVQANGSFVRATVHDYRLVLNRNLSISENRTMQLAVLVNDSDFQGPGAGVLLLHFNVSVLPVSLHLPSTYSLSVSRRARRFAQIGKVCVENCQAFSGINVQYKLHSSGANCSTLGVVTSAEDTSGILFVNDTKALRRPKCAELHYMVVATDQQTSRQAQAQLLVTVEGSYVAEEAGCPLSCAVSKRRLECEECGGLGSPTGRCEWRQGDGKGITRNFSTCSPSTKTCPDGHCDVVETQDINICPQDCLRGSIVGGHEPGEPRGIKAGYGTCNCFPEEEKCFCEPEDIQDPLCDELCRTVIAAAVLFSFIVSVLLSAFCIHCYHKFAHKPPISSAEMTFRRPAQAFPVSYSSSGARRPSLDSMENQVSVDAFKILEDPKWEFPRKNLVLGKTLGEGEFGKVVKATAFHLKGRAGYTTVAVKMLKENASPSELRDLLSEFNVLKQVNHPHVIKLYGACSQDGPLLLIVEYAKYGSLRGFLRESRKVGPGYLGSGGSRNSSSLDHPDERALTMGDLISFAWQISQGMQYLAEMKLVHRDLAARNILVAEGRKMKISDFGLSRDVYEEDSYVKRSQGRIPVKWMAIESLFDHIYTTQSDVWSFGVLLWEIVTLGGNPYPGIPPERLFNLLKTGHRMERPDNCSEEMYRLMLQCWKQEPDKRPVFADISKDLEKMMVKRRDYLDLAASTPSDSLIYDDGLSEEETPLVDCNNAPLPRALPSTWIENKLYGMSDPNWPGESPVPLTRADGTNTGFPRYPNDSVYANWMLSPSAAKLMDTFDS
Procedure: as §1
as §2, with “25 μL, Ret (h) (5-10” for “25 μL, Aurora-A (h) (5-10”, “mM EDTA, 250 μM […]” for “mM EDTA, 200 μM LRRASLG”, “250 μM […] [SEQ ID” for “200 μM LRRASLG [SEQ ID”, “ID NO: 56], 10 mM” for “ID NO: 50] (Kemptide), 10 mM”, “of 5 μl, of a” for “of 5 μL of a”, “minutes in 75 mM phosphoric” for “minutes in 50 mM phosphoric”
IC50 values for inhibitor peptides were determined using Millipore's IC50Profiler Express service. The IC50 value was estimated from a 10-point curve of one-half log dilutions. […]

Sequence	Aurora-A Kinase Activity (%) (+SD %) ([1]; peptide 100 μM)	JAK3 Kinase Activity (%) (+SD %) ([2]; peptide 100 μM)	Ret Kinase Activity (%) (+SD %) [3]	Aurora-A Kinase Activity (%) (+SD %) ([1]; peptide 30 μM)	JAK3 Kinase Activity (%) (+SD %) ([2]; peptide 30 μM)
KAFAKLAARLYRKALARQLGVAA	60 (1) %	91 (8) %	107 (9) %		
WLRRIKAWLRRIKALNRQLGVAA	65 (5) %	102 (2) %	89 (0) %	46 (1) %	85 (5) %
